Measurements reported in patent US20210139932A1.

What was measured:
[1] = target: human L-selectin (human) (UniProt P14151); test: cell-based or functional assay
[2] = target: CD34 (human) (UniProt P28906); test: cell-based or functional assay
Chain of UniProt P28906 (P28906 32-385): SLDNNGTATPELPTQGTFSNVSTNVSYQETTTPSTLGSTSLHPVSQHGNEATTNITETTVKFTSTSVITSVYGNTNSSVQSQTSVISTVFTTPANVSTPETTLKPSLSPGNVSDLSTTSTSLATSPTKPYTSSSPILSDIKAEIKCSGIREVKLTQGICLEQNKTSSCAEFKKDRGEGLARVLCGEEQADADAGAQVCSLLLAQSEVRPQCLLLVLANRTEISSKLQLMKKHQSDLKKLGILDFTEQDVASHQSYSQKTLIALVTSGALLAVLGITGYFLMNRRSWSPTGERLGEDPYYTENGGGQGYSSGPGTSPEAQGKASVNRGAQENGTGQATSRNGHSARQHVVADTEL

Substance | reduction of the L-selectin enhanced amount of CD34+ transduction [1] [%] | transduction of cytokine-stimulated CD34+ cells (% eGFP+ cells) [2] [fold]
anti-human L-selectin antibody (clone DREG56; Thermo Fisher) | 79 | 
human L-selectin (from UniProt P14151 39-372) (ligand) |  | 2
